How the values were obtained:
[1] = target: monomeric carbohydrate-recognition domain (CRD) from DC-SIGN (UniProt Q9NNX6); assay: radioligand binding; competition: CRD of DC-SIGN immobilised on polystyrene wells, 125I-labeled mannose-BSA as reporter ligand, competing ligand titrated; KI = concentration for 50% inhibition
[2] = target: monomeric carbohydrate-recognition domain (CRD) from DC-SIGN (UniProt Q9NNX6); assay: SPR; BiaCore 3000, CM5 chip; CRD of DC-SIGN immobilised, glycopeptide from SBA in the fluid phase; steady state; 10 mM Hepes, 150 mM NaCl, 5 mM CaCl2, 0.005% P20, pH 7.4, 25 °C
[3] = target: monomeric carbohydrate-recognition domain (CRD) of rat macrophage galactose lectin (MGL) (rat) (UniProt P49301); assay: radioligand binding; competition: CRD or ECD of MGL coated on polystyrene wells, 125I-labeled Gal-BSA as reporter ligand, competing ligand titrated; KI = concentration for 50% inhibition
Sequence of monomeric carbohydrate-recognition domain (CRD) of rat macrophage galactose lectin (MGL) (rat) (P49301 165-306): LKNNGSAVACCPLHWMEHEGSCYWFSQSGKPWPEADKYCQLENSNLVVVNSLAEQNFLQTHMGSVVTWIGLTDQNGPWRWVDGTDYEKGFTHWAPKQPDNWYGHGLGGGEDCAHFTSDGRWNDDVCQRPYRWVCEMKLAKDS

[4] = target: trimeric extracellular domain (ECD) of rat macrophage galactose lectin (MGL) (rat) (UniProt P49301); assay: as above
Sequence of trimeric extracellular domain (ECD) of rat macrophage galactose lectin (MGL) (rat) (P49301 59-306, tags left off): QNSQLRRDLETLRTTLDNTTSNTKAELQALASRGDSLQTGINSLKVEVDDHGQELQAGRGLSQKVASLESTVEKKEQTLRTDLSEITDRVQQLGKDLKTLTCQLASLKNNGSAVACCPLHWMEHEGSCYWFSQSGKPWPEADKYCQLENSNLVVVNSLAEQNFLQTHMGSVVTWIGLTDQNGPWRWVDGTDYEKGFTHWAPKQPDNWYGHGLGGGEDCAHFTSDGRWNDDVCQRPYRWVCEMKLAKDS

[5] = target: Man9GlcNAc2 glycopeptide isolated from soybean agglutinin (soybean); assay: SPR; BiaCore 3000, CM5 chip; SBA or its glycopeptide amine-coupled, monomeric CRD of DC-SIGN flowed over; steady state, simple saturation model with linear background; 10 mM Hepes, 150 mM NaCl, 5 mM CaCl2, 0.005% P20, pH 7.4, 25 °C

Sequence of monomeric carbohydrate-recognition domain (CRD) from DC-SIGN (Q9NNX6 250-404): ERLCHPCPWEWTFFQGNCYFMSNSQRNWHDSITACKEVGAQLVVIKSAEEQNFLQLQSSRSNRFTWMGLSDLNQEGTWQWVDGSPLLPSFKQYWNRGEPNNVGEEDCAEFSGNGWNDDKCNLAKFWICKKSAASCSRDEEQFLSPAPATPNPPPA

Substance	Ki [1]	Kd [2]	Ki [3]	Ki [4]	fold lower affinity than for intact SBA [5]
Man9GlcNAc2 glycopeptide isolated from soybean agglutinin	68 µM	76 µM	–	–	–
asialo-orosomucoid derived from human blood (from UniProt P02763 19-201) (natural protein)	–	–	0.12 µM	0.18 µM	–
monomeric carbohydrate-recognition domain (CRD) from DC-SIGN (from UniProt Q9NNX6 250-404) (domain or fragment)	–	–	–	–	15 fold
asialo-orosomucoid OR-5 (five glycosylation sites, expressed in Chinese hamster ovary cells) (from UniProt P02763 19-201) (natural protein)	–	–	1.4 µM	0.65 µM	–
desialylated tri-antennary glycopeptide isolated from fetuin	–	–	260 µM	160 µM	–
